The test system of the series is Escherichia coli TOP10. As to the kind of experiment: shrunken log2 fold change of peptide-encoding DNA abundance (4.5 h post-induction vs induction); higher = less antimicrobial activity (less host growth inhibition). To be noted: time post-induction: 4.5 h; library: site-saturation at positions 5, 18, 19, 20.
As for RRIRERPPRLPRPRPRPRFMPRP, the “shrunken log2 fold change” value was -0.0944.
To RRIRPRPPRLPRPRPRPPEDPRP belongs 0.695; to RRIRCRPPRLPRPRPRPKDFPRP, -0.0611.
To RRIRMRPPRLPRPRPRPRPGPRP belongs 1.38.
As to RRIRVRPPRLPRPRPRPKLVPRP, the “shrunken log2 fold change” value came to 0.194.
With RRIRTRPPRLPRPRPRPTFNPRP, the “shrunken log2 fold change” value was -0.199.
Turning to RRIRQRPPRLPRPRPRPDYGPRP, the “shrunken log2 fold change” value is -0.159.
RRIRQRPPRLPRPRPRPQWAPRP: the “shrunken log2 fold change” value came to 0.142.
To RRIRWRPPRLPRPRPRPRFDPRP belongs 0.147; to RRIRRRPPRLPRPRPRPTREPRP, 0.892; to RRIRHRPPRLPRPRPRPFKQPRP, -0.0287.
In the case of RRIRTRPPRLPRPRPRPRWHPRP, the “shrunken log2 fold change” value was determined as 0.133.
Regarding RRIRRRPPRLPRPRPRPAYYPRP, the “shrunken log2 fold change” value turned out to be 0.0681.
For the sequence RRIRKRPPRLPRPRPRPWIIPRP, the “shrunken log2 fold change” value was -0.277.
To RRIRIRPPRLPRPRPRPNPNPRP belongs -0.556; to RRIRCRPPRLPRPRPRPITYPRP, -0.362.
To RRIRQRPPRLPRPRPRPYLDPRP belongs -0.286; to RRIRTRPPRLPRPRPRPCWRPRP, 0.156; to RRIRERPPRLPRPRPRPEHIPRP, -0.594.
As for RRIRIRPPRLPRPRPRPKHFPRP, the “shrunken log2 fold change” value was -0.292.
To RRIRHRPPRLPRPRPRPFVFPRP belongs -0.0736; to RRIRSRPPRLPRPRPRPFQNPRP, -0.3.
To RRIRQRPPRLPRPRPRPKWMPRP belongs -0.131; to RRIRWRPPRLPRPRPRPPGFPRP, 0.209.
Consider RRIRGRPPRLPRPRPRPFKFPRP, for which the “shrunken log2 fold change” value is -0.11.
As to RRIRSRPPRLPRPRPRPFTNPRP, the “shrunken log2 fold change” value was -0.0617.
To RRIRIRPPRLPRPRPRPWWEPRP belongs -0.109; to RRIRPRPPRLPRPRPRPVMNPRP, -0.29.
In the case of RRIRQRPPRLPRPRPRPFWMPRP, the “shrunken log2 fold change” value stood at 0.00494.
For RRIRRRPPRLPRPRPRPKLMPRP, the “shrunken log2 fold change” value came out at 0.178.
As to RRIRCRPPRLPRPRPRPRDGPRP, the “shrunken log2 fold change” value worked out at 1.
On to RRIRCRPPRLPRPRPRPGCMPRP, for which the “shrunken log2 fold change” value worked out at 0.00195.
For the sequence RRIRHRPPRLPRPRPRPNVHPRP, the “shrunken log2 fold change” value is -0.113.
In the case of RRIRGRPPRLPRPRPRPFRQPRP it was 0.124.
To RRIRLRPPRLPRPRPRPHHGPRP belongs -0.0757.
In the case of RRIRQRPPRLPRPRPRPKMFPRP it was 0.106.
For the sequence RRIRNRPPRLPRPRPRPCANPRP, the “shrunken log2 fold change” value was found to be 0.0435.
In the case of RRIRHRPPRLPRPRPRPCKLPRP it was -0.714.
To RRIRQRPPRLPRPRPRPIVLPRP belongs -0.132; to RRIRYRPPRLPRPRPRPLSEPRP, -0.215.
To RRIRSRPPRLPRPRPRPITTPRP belongs -0.578; to RRIRHRPPRLPRPRPRPQRHPRP, 0.0629.
Take RRIRWRPPRLPRPRPRPETHPRP: the “shrunken log2 fold change” value turned out to be 0.756.
As for RRIRLRPPRLPRPRPRPHVCPRP, the “shrunken log2 fold change” value was -0.247.
On to RRIRVRPPRLPRPRPRPGSIPRP, for which the “shrunken log2 fold change” value was found to be 0.00983.
In the case of RRIRQRPPRLPRPRPRPECIPRP, the “shrunken log2 fold change” value is -0.269.
In the case of RRIRSRPPRLPRPRPRPFTEPRP it was -0.0824; in that of RRIRMRPPRLPRPRPRPLTAPRP, 1.15.
Consider RRIRRRPPRLPRPRPRPDKHPRP, for which the “shrunken log2 fold change” value came to 0.157.
Regarding RRIRVRPPRLPRPRPRPYGYPRP, the “shrunken log2 fold change” value was -1.16.
In the case of RRIRIRPPRLPRPRPRPQPAPRP it was 0.213; in that of RRIRTRPPRLPRPRPRPNIAPRP, -0.239; in that of RRIRSRPPRLPRPRPRPGSGPRP, 0.32.
To RRIRSRPPRLPRPRPRPLGAPRP belongs 0.295.
To RRIRSRPPRLPRPRPRPHFEPRP belongs -0.325; to RRIRTRPPRLPRPRPRPEWGPRP, 0.249.
With RRIRERPPRLPRPRPRPHQCPRP, the “shrunken log2 fold change” value is -0.262.
Take RRIRFRPPRLPRPRPRPMRVPRP: the “shrunken log2 fold change” value stood at 0.973.
In the case of RRIRTRPPRLPRPRPRPAPNPRP it was 0.0436; in that of RRIRGRPPRLPRPRPRPCQIPRP, -0.0259; in that of RRIRTRPPRLPRPRPRPFSLPRP, -0.0845.
To RRIRMRPPRLPRPRPRPRHQPRP belongs 0.155; to RRIRLRPPRLPRPRPRPMDWPRP, -0.0759; to RRIRERPPRLPRPRPRPVIIPRP, -0.634.
For RRIRFRPPRLPRPRPRPVWSPRP, the “shrunken log2 fold change” value amounted to 0.175.
Consider RRIRRRPPRLPRPRPRPHGFPRP, for which the “shrunken log2 fold change” value was 0.114.
To RRIRSRPPRLPRPRPRPCLDPRP belongs -0.224.
In the case of RRIRFRPPRLPRPRPRPLCRPRP it was -0.406; in that of RRIRYRPPRLPRPRPRPECIPRP, -0.00318.
In the case of RRIRKRPPRLPRPRPRPRSIPRP it was 0.176; in that of RRIRDRPPRLPRPRPRPYWFPRP, -0.579.
With RRIRRRPPRLPRPRPRPAENPRP, the “shrunken log2 fold change” value came out at 0.0557.
Regarding RRIRCRPPRLPRPRPRPLKEPRP, the “shrunken log2 fold change” value is 0.244.
On to RRIRRRPPRLPRPRPRPWTWPRP, for which the “shrunken log2 fold change” value was -0.008.
In the case of RRIRQRPPRLPRPRPRPPKPPRP it was -0.0724.
In the case of RRIRGRPPRLPRPRPRPYSHPRP it was -0.129.
In the case of RRIRHRPPRLPRPRPRPFDIPRP it was -0.212; in that of RRIRERPPRLPRPRPRPDPTPRP, -0.0306; in that of RRIRMRPPRLPRPRPRPNQWPRP, 2.38.
As to RRIRGRPPRLPRPRPRPSIIPRP, the “shrunken log2 fold change” value was determined as 0.211.
As for RRIRIRPPRLPRPRPRPTCGPRP, the “shrunken log2 fold change” value was -0.0476.
To RRIRQRPPRLPRPRPRPLNQPRP belongs -0.155.
In the case of RRIRSRPPRLPRPRPRPIWPPRP it was 0.0426.
Take RRIRSRPPRLPRPRPRPVRIPRP: the “shrunken log2 fold change” value was -0.239.
With RRIRYRPPRLPRPRPRPIQLPRP, the “shrunken log2 fold change” value is -0.0605.
To RRIRLRPPRLPRPRPRPSFVPRP belongs -0.392; to RRIRERPPRLPRPRPRPGVCPRP, 0.155; to RRIRYRPPRLPRPRPRPHTEPRP, -0.0196.
RRIRWRPPRLPRPRPRPKYSPRP: the “shrunken log2 fold change” value is -0.654.
In the case of RRIRARPPRLPRPRPRPISDPRP it was 0.266; in that of RRIRWRPPRLPRPRPRPITDPRP, -0.15.
In the case of RRIRHRPPRLPRPRPRPSLEPRP, the “shrunken log2 fold change” value is 0.0392.
In the case of RRIRPRPPRLPRPRPRPMNLPRP it was 0.00249.
As to RRIRQRPPRLPRPRPRPTYKPRP, the “shrunken log2 fold change” value is -0.549.
As for RRIRKRPPRLPRPRPRPLMLPRP, the “shrunken log2 fold change” value was 0.007.
To RRIRIRPPRLPRPRPRPGLVPRP belongs 0.0385; to RRIRGRPPRLPRPRPRPVHCPRP, 0.0385.
In the case of RRIRKRPPRLPRPRPRPWFTPRP, the “shrunken log2 fold change” value is -0.00863.
In the case of RRIRIRPPRLPRPRPRPVFVPRP it was -0.397; in that of RRIRPRPPRLPRPRPRPGAKPRP, 0.265; in that of RRIRFRPPRLPRPRPRPVWNPRP, -0.0763.
Turning to RRIRNRPPRLPRPRPRPKFCPRP, the “shrunken log2 fold change” value was -0.198.
In the case of RRIRQRPPRLPRPRPRPNDRPRP it was -0.16; in that of RRIRFRPPRLPRPRPRPQEQPRP, -0.0102.
For the sequence RRIRDRPPRLPRPRPRPVPTPRP, the “shrunken log2 fold change” value came to 0.247.
For the sequence RRIRTRPPRLPRPRPRPHSLPRP, the “shrunken log2 fold change” value was determined as 0.0291.
To RRIRERPPRLPRPRPRPPAMPRP belongs -0.186; to RRIRGRPPRLPRPRPRPLNIPRP, -0.148; to RRIRRRPPRLPRPRPRPAMDPRP, 0.0975.
In the case of RRIRIRPPRLPRPRPRPVNYPRP, the “shrunken log2 fold change” value was -0.0508.
To RRIRVRPPRLPRPRPRPWGVPRP belongs -0.15; to RRIRCRPPRLPRPRPRPKIHPRP, -0.558; to RRIRARPPRLPRPRPRPVVKPRP, 0.298.
Take RRIRRRPPRLPRPRPRPLACPRP: the “shrunken log2 fold change” value is 0.491.
Take RRIRNRPPRLPRPRPRPWYLPRP: the “shrunken log2 fold change” value is -0.0197.
RRIRKRPPRLPRPRPRPGSNPRP: the “shrunken log2 fold change” value is -0.0467.
Regarding RRIRSRPPRLPRPRPRPFPIPRP, the “shrunken log2 fold change” value was found to be 0.0325.
On to RRIRLRPPRLPRPRPRPTHQPRP, for which the “shrunken log2 fold change” value is 0.592.
To RRIRERPPRLPRPRPRPFNRPRP belongs -0.0972; to RRIRRRPPRLPRPRPRPQLLPRP, 0.537; to RRIRQRPPRLPRPRPRPPFNPRP, -0.159.
Consider RRIRARPPRLPRPRPRPPAEPRP, for which the “shrunken log2 fold change” value worked out at 1.15.
To RRIRTRPPRLPRPRPRPNCRPRP belongs -0.00739; to RRIRFRPPRLPRPRPRPVHTPRP, -0.0075.
In the case of RRIRARPPRLPRPRPRPPGHPRP it was 0.779.

These data come from the supplement of paper PMC9112550, “Optimization of the antimicrobial peptide Bac7 by deep mutational scanning” (BMC Biology, 2022).
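Note: peptides expressed intracellularly from a pBAD plasmid library in pooled LB shake-flask culture, induced with 0.3% L-arabinose, DNA abundance read by NGS, three biological replicates, DESeq2 with apeglm shrinkage.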
